The conditions of this data set: Homo sapiens, pH 7.5, Thermal, CD, Tris-HCl 20mM, whole UniProt chain shown.

The values that follow come from FireProtDB (doi:10.3390/ijms21030752).

By Tm is commonly meant the temperature at which the thermal transition is half complete.

B1: Guanylyl cyclase-activating protein 1 wild type, P43080 (protein)
chain: MGNVMEGKSVEELSSTECHQWYKKFMTECPSGQLTLYEFRQFFGLKNLSPSASQYVEQMFETFDFNKDGYIDFMEYVAALSLVLKGKVEQKLRWYFKLYDVDGNGCIDRDELLTIIQAIRAINPCSDTTMTAEEFTDTVFSKIDVNGDGELSLEEFIEGVQKDQMLLDTLTRSLDLTRIVRRLQNGEQDEEGADEAAEAAG
Turning to B1, the Tm was determined as 49.8 °C (KCL 150 mM); 50.3 °C (KCL and Mg2+ 150 mM and 1 mM).
